Here are results for one substance from paper PMC8913647.

Experiment [1] deals with major capsid protein VP1 of GII.4 norovirus Houston/TCH186/2002 (HOV), assembled as virus-like particle (human norovirus GII.4 (Houston/TCH186/2002, HOV)). In words: crystal structure; GII.4 HOV VLP crystallised by hanging-drop vapor diffusion at room temperature; space group I222, 45 VP1 copies in the asymmetric unit, refined with NCS without imposing icosahedral symmetry; 3.0 Å.

Experiment [2] shares this target. In words: cryo-EM structure; GII.4 HOV VLPs (0.24 mg/ml) in PBS pH 6.0 on graphene oxide coated grids; single-particle reconstruction with icosahedral symmetry imposed (cryoSPARC); ~3.8 Å.

Consider “major capsid protein VP1 of GII.4 norovirus Houston/TCH186/2002 (HOV), assembled as virus-like particle (natural protein)”, for which the stoichiometry N in experiment [1] and in experiment [2] was 180 throughout.

Usually stoichiometry N stands for a count of units in the complex or per binding partner.
